Molecular target: AGR2 (human, endogenous in PDAC cells) (UniProt O95994)

POLR2A (human, endogenous in PDAC cells)
phosphorylation levels of Ser2/5 residues (p-POLR2A^ser2/5) after AGR2 siRNA transfection, western blot: AGR2 downregulation (by siRNA transfection) reduces the phosphorylation levels of Ser2/5 residues (p-POLR2A^ser2/5), but not the POLR2A expression

Reference: patent publication US20240190915
